Reference: US20220112525A1, “BIOSYNTHESIS OF VANILLIN FROM ISOEUGENOL” (Conagen Inc., priority 2019, published 2022)

How the values were obtained:
[1] = Enzyme assay in vitro with 4,4'-dihydroxy-3,3'-dimethoxystilbene as substrate, vanillin detected by HPLC; type: biochemical; settings: 30° C., 50 mM Tris-HCl pH 8.5, substrate 200 μM
Protocol: The activity of FfLSD was determined by two substrates, 4,4′-dihydroxy-3,3′-dimethoxystilbene and isoeugenol, respectively. For measuring the activity toward 4,4′-dihydroxy-3,3′-dimethoxystilbene, the activity was assayed at 30° C. in 2.5 ml of 50 mM Tris-HCl buffer (PH 8.5) containing suitable amounts of enzyme solution. The enzyme reaction was started by addition of substrates dissolved in 10 μL of N,N-dimethylformamide (DMF) to a final concentration of 200 μM. The reaction product, vanillin, was detected with HPLC analysis.

[2] = Enzyme assay in vitro with isoeugenol as substrate, formation of vanillin by HPLC; type: biochemical; settings: 10 mM isoeugenol, 10 min
Protocol: The activity was also measured with isoeugenol by measuring the formation of vanillin. The reaction mixture contained 10 mM isoeugenol, 100 mM potassium phosphate buffer (pH 7.0), 10% (v/v) ethanol and an appropriate amount of enzyme, in a total volume of 1 ml. The reaction was started, by adding isoeugenol as ethanol solution, carried out at 30° C. for 10 min with reciprocal shaking (160 strokes min^−1) and stopped with 1 ml of methanol. After centrifugation at 21,500, the supernatant was analyzed by HPLC for the determination of isoeugenol, vanillin, vanillyl alcohol. FfLSD enzyme treated in boiling water for 5 minutes was used as the negative control.
Almost all isoeugenol added to the reaction mixture was converted to vanillin (top panel). As expected, no vanillin was produced with the negative control (bottom panel).

B1: FfLSD: putative lignostilbene-α, β-dioxygenase from the fungus Fusarium fujikuroi, 522 amino acids (SEQ ID NO: 2), recombinant, His-tagged (protein, listed as Fusarium fujikuroi)
chain: MSAPEEHHGLKSKWPQAFDLAGSNSPCRIEGEIGDLVVLGEIPPAIDGTFYRVMCDPFVPPHPDNVPLDGDGHVSAFRIYNGRVDMKIKYVETERYKLERKAGKALFGLYRNPFTHHPCVRAAVDSTANTNMVYWADRLLALKESALPYEMHPDTLETLCYDPFGGQVKAKAFTAHPKIDPFSDELVVYGYEAKGLATRDIVIYSLDKNGIKHDEQWIESPWCAPIHDCVITPNFIVLILWPFEASVERMKAGKQHWAWDYSLPATFIVVPRRKTSKIPASWKQGEHRVYHWKNCMNIHAGSAWEEDNGKLYLETSRVHDNAFPFFPPVDGRMPAPDAKADFVRWEIDLNAPSGTQMADPEVILDVPSEFPRIDERFMTKRNEYLFLNVFIPETSQGGTNIFHGLNGLAMHNHSTGETKWFFAGKDSLVQEPIFIPRTADAPEGDGWVIAMLERRVANRSELVVLDTREFEKPVAFIQLPMHLKAQVHGNWIDSRTRASTEAIVRQIGEVKVSARGALEPLA
modifications: His tag
In the case of B1, the “activity toward 4,4′-dihydroxy-3,3′-dimethoxystilbene” value [1] is reported as “did not show activity”, the “isoeugenol added to the reaction mixture converted to vanillin” value ([2]; pH 7.0, 30° C., HPLC (FIG. 6)) is reported as “Almost all” and the activity toward isoeugenol ([2]; potassium phosphate pH 7.0, 30° C.) is reported as “high activity”.
